Measurements published in US20190284293A1, “COMBINATION THERAPY WITH ANTI-CD73 ANTIBODIES” (BRISTOL-MYERS SQUIBB COMPANY, priority 2016, published 2019).
Positions count from the first letter of the chain named.

T1: CD32b (FcgRIIb) (Homo sapiens, UniProt P31994)
T1 sequence (P31994 43-310): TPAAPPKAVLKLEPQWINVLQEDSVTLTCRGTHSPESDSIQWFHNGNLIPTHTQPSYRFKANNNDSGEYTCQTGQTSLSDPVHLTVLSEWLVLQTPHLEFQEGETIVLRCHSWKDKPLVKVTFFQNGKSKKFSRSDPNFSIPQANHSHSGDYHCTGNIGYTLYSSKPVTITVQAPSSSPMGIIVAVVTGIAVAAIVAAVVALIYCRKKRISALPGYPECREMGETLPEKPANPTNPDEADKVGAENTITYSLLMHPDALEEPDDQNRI

T2: CD32a-H131 (FcgRIIa-H131) (Homo sapiens, UniProt P12318)
T2 sequence (P12318 34-217 limits assumed): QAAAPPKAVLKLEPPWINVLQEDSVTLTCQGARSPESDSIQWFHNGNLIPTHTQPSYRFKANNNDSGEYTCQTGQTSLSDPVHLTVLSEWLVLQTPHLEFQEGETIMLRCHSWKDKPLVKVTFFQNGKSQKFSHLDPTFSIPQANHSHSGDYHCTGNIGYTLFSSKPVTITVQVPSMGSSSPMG

T3: CD32a-R131 (FcgRIIa-R131) (Homo sapiens, UniProt P12318, H167R)
T3 sequence (P12318 34-217 H167R limits assumed): T2 sequence (P12318 34-217 limits assumed) with H134R

B1: mAb7-IgG2.3G1-AY-V27 (protein)
constant: ASTKGPSVFPLAPCSRSTSESTAALGCLVKDYFPEPVTVSWNSGALTSGVHTFPAVLQSSGLYSLSSVVTVPSSNFGTQTYTCNVDHKPSNTKVDKTVERKSCVECPPCPAPELLGGPSVFLFPPKPKDTLMISRTPEVTCVVVDVEHEDPEVKFNWYVDGVEVHNAKTKPREEQYNSTYRVVSVLTVLHQDWLNGKEYKCKVSNKALPAPIEKTISKAKGQPREPQVYTLPPSREEMTKNQVSLTCLVKGFYPSDIAVEWESNGQPENNYKTTPPVLDSDGSFFLYSKLTVDKSRWQQGNVFSCSVMHEALHNHYTQKSLSLSPGK
modifications: left off: another chain or arm of the molecule
B2: mAb8-IgG2.5G1-AY-V27 (protein)
constant: B1 constant with C14S, S102C
modifications: left off: another chain or arm of the molecule
B3: mAb7-IgG2.5G1-AY-V27 (protein)
constant: B1 constant with C14S, S102C
modifications: left off: another chain or arm of the molecule
B4: mAb13-IgG2.3 (protein)
constant: ASTKGPSVFPLAPCSRSTSESTAALGCLVKDYFPEPVTVSWNSGALTSGVHTFPAVLQSSGLYSLSSVVTVPSSNFGTQTYTCNVDHKPSNTKVDKTVERKSCVECPPCPAPPVAGPSVFLFPPKPKDTLMISRTPEVTCVVVDVSHEDPEVQFNWYVDGVEVHNAKTKPREEQFNSTFRVVSVLTVVHQDWLNGKEYKCKVSNKGLPAPIEKTISKTKGQPREPQVYTLPPSREEMTKNQVSLTCLVKGFYPSDIAVEWESNGQPENNYKTTPPMLDSDGSFFLYSKLTVDKSRWQQGNVFSCSVMHEALHNHYTQKSLSLSPGK
modifications: left off: another chain or arm of the molecule
B5: mAb11-IgG2.5 (protein)
constant: B4 constant with C14S, S102C
modifications: left off: another chain or arm of the molecule
B6: mAb8-IgG2.5 (protein)
constant: B4 constant with C14S, S102C
modifications: left off: another chain or arm of the molecule
B7: mAb5-IgG2.5 (protein)
constant: B4 constant with C14S, S102C
modifications: left off: another chain or arm of the molecule
B8: mAb7-IgG2.5 (protein)
constant: B4 constant with C14S, S102C
modifications: left off: another chain or arm of the molecule
B9: mAb6-IgG2.5 (protein)
constant: B4 constant with C14S, S102C
modifications: left off: another chain or arm of the molecule
B10: mAb4-IgG2.5 (protein)
constant: B4 constant with C14S, S102C
modifications: left off: another chain or arm of the molecule
B11: mAb13-IgG2.5 (protein)
constant: B4 constant with C14S, S102C
modifications: left off: another chain or arm of the molecule

Each molecule was assayed against T1, CD32b (FcgRIIb) (assay: SPR, antibody binding to anti-his Fab captured FcgR-his (% Rmax)). Conditions: 1 μM antibody.
Protocol: (§1) The binding of antibodies to Fc gamma receptors (FcγRs or FcgRs) was studied using biosensor technologies including Biacore surface plasmon resonance (SPR) and Fortebio Biolayer Interferometry (BLI). SPR studies were performed on a Biacore T100 instrument (GE Healthcare) at 25° C. The Fab fragment from a murine anti-6×His antibody was immobilized on a CM5 sensor chip using EDC/NHS to a density of −3000 RU. Various his-tagged FcgRs (7 ug/ml) were captured via the C-terminal his-tag using a contact time of 30 s at 10 ul/min, and the binding of 1.0 μM antibody was evaluated in a running buffer of 10 mM NaPO4, 130 mM NaCl, 0.05% p20 (PBS-T) pH 7.1. FcgRs used for these experiments included CD64 (FcgRI), CD32a-H131 (FcgRIIa-H131), CD32a-R131 (FcgRIIa-R131), CD32b (FcgRIIb), CD16a-V158 (FcgRIIIa-V158), CD16b-NA1 (FcgRIIIb-NA1), and CD16B-NA2 (FcgRIIIb-NA2). BLI experiments were performed on a Fortebio Octet RED instrument (Pall, Fortebio) at 25° C. in 10 mM NaPO4, 130 mM NaCl, 0.05% p20 (PBS-T) pH 7.1. Antibodies were captured out of undiluted expression supernatants on protein A coated sensors, followed by the binding of 1 μM hCD32a-H131, hCD32a-R131, hCD32b, hCD16a-V158, or 0.1 μM hCD64 analytes.

% Rmax hCD32b [%] | Molecule
76 | B1
77 | B2
84 | B3
1 | B4
3 | B5
3 | B6
5 | B7
2 | B8
4 | B9
1 | B10
−2 | B11

What follows are molecules tested against CD16B-NA2 (FcgRIIIb-NA2) (Homo sapiens, UniProt O75015) in the same assay as above. Conditions: 1 μM antibody.
CD16B-NA2 (FcgRIIIb-NA2), sequence (O75015 17-200 limits assumed): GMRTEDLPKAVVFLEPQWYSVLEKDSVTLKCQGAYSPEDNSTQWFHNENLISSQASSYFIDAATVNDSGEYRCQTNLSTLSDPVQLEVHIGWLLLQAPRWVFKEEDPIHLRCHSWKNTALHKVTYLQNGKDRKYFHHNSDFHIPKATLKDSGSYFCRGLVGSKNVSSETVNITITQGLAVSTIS
Protocol: as §1

% Rmax hCD16B-NA2 [%] | Molecule
7 | B1
10 | B2
9 | B3
0 | B4
−1 | B5
0 | B6
1 | B7
0 | B8
0 | B9
0 | B10
−2 | B11

Each molecule was assayed against T2, CD32a-H131 (FcgRIIa-H131) in the same assay as above. Conditions: 1 μM antibody.
Protocol: as §1

% Rmax hCD32a-H131 [%] | Molecule
68 | B1
76 | B2
74 | B3
40 | B4
40 | B5
59 | B6
89 | B7
72 | B8
75 | B9
46 | B10
39 | B11

What follows are molecules tested against CD64 (FcgRI) (Homo sapiens, UniProt P12314) in the same assay as above. Conditions: 1 μM antibody.
CD64 (FcgRI), sequence (P12314 16-374): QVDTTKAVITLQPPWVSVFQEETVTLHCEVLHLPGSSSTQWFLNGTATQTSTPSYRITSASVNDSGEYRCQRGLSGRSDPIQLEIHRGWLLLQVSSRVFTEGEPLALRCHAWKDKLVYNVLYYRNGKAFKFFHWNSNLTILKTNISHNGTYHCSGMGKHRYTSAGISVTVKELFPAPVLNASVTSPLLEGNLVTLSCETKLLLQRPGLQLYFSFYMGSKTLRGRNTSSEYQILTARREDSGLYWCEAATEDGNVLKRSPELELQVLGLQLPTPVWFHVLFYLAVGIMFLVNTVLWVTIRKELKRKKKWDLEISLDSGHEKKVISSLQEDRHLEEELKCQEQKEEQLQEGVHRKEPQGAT
Protocol: as §1

% Rmax hCD64 [%] | Molecule
84 | B1
77 | B2
81 | B3
2 | B4
0 | B5
3 | B6
6 | B7
4 | B8
3 | B9
2 | B10
−2 | B11

What follows are molecules tested against CD16a-V158 (FcgRIIIa-V158) (Homo sapiens, UniProt P08637, F176V) in the same assay as above. Conditions: 1 μM antibody.
CD16a-V158 (FcgRIIIa-V158), sequence (P08637 17-208 F176V limits assumed): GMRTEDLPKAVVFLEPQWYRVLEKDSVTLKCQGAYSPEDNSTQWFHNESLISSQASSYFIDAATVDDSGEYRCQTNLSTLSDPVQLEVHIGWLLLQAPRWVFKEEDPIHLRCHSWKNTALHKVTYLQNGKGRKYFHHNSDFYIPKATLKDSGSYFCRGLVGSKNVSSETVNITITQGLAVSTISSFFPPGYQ
Protocol: as §1

% Rmax hCD16a-V158 [%] | Molecule
26 | B1
33 | B2
32 | B3
1 | B4
0 | B5
2 | B6
4 | B7
2 | B8
2 | B9
1 | B10
0 | B11

These molecules were tested against T3, CD32a-R131 (FcgRIIa-R131) in the same assay as above. Conditions: 1 μM antibody.
Protocol: as §1

% Rmax hCD32a-R131 [%] | Molecule
92 | B1
79 | B2
89 | B3
7 | B4
13 | B5
14 | B6
26 | B7
19 | B8
17 | B9
8 | B10
4 | B11
